Reference: the Human Domainome abundance scans (Beltran et al. 2025)
± gives the uncertainty stated by the source.

B1: Integrator complex subunit 12, residues 155 to 213; numbered along this chain, Q96CB8 (parent)
chain: AMEMGLACVVCRQMMVASGNQLVECQECHNLYHRDCHKPQVTDKEANDPRLVWYCARCT

Variants of: B1
Experiment: abundance fitness (aPCA) (normalised: wild type 0, dead -1); higher = more abundant; growth selection in yeast, the domain comes from the species named
Conditions: Homo sapiens

Variant | abundance fitness
P39C | 0.045 ± 0.09
P39W | -0.363 ± 0.049
P39A | -0.313 ± 0.056
P39G | -0.28 ± 0.041
P39R | -0.279 ± 0.038
G5V | -0.13 ± 0.033
G5Q | 0.085 ± 0.052
G5Y | -0.267 ± 0.036
G5E | 0.066 ± 0.067
M14I | 0.028 ± 0.042
M14E | 0.042 ± 0.059
M14Q | 0.082 ± 0.28
E3A | -0.103 ± 0.04
E3M | -0.232 ± 0.069
E3K | -0.089 ± 0.065
E3F | -0.304 ± 0.038
E3D | -0.065 ± 0.037
E3T | -0.137 ± 0.041
V52G | 0.023 ± 0.051
V52Y | -0.284 ± 0.087
V52T | 0.034 ± 0.053
V52R | -0.032 ± 0.046
V52N | -0.012 ± 0.08
V52A | 0.036 ± 0.051

Variant | abundance fitness
V52D | 0.025 ± 0.061
V52L | -0.018 ± 0.044
V52I | -0.095 ± 0.057
A46K | 0.05 ± 0.062
A46T | -0.136 ± 0.068
A46Q | -0.079 ± 0.062
A46P | -0.202 ± 0.071
A46I | -0.077 ± 0.075
A46V | 0.008 ± 0.043
M2A | -0.142 ± 0.043
M2N | -0.112 ± 0.04
M2E | -0.046 ± 0.09
M2F | -0.055 ± 0.036
M2D | -0.185 ± 0.044
L31N | 0.027 ± 0.036
L31A | 0.04 ± 0.033
L31P | -0.164 ± 0.052
L31M | -0.008 ± 0.051
L31T | 0.055 ± 0.039
L31Q | 0.084 ± 0.07
L31W | 0.101 ± 0.049
L31G | -0.048 ± 0.03
L31E | -0.358 ± 0.059
M15S | 0.079 ± 0.03

Variant | abundance fitness
M15P | 0.084 ± 0.046
M15R | 0.023 ± 0.032
M15E | -0.081 ± 0.07
M15N | 0.063 ± 0.034
Q21M | 0.079 ± 0.085
Q21K | -0.123 ± 0.067
Q21F | -0.078 ± 0.04
Q21P | -0.072 ± 0.082
Q21E | -0.067 ± 0.062
Q21Y | -0.117 ± 0.039
E27D | -0.049 ± 0.036
E27A | -0.044 ± 0.036
E27C | -0.107 ± 0.034
L6P | -0.03 ± 0.046
L6Q | 0.014 ± 0.064
L6R | -0.08 ± 0.038
L6V | 0.036 ± 0.032
L6W | -0.552 ± 0.066
L6G | -0.034 ± 0.033
L6S | 0.073 ± 0.033
L6A | 0.099 ± 0.038
V9M | -0.204 ± 0.054
V9E | -0.197 ± 0.078
V9P | -0.289 ± 0.045

Variant | abundance fitness
V9A | -0.046 ± 0.044
V9I | -0.101 ± 0.035
R34H | -0.083 ± 0.067
R34A | -0.054 ± 0.062
R34G | 0.066 ± 0.086
R34M | 0.005 ± 0.057
R34S | 0.009 ± 0.052
R34V | -0.018 ± 0.051
R34K | 0.229 ± 0.068
E24A | -0.123 ± 0.049
E24L | -0.376 ± 0.046
E24F | -0.459 ± 0.041
E24H | -0.226 ± 0.056
E24N | -0.308 ± 0.044
R57A | -0.018 ± 0.039
R57F | -0.234 ± 0.095
R57K | -0.029 ± 0.047
D35L | 0.06 ± 0.032
D35H | 0.071 ± 0.036
D35C | -0.045 ± 0.033
D35A | 0.054 ± 0.036
D35W | -0.089 ± 0.044
D35I | -0.079 ± 0.035
C8K | -0.874 ± 0.089

Variant | abundance fitness
C8V | -1.14 ± 0.078
C8E | -0.927 ± 0.12
T59L | -0.249 ± 0.068
T59R | -0.002 ± 0.055
T59W | -0.387 ± 0.12
T59F | -0.254 ± 0.14
T59H | 0.035 ± 0.077
T59C | -0.25 ± 0.18
T59Y | -0.218 ± 0.21
E45H | -0.134 ± 0.091
E45W | -0.248 ± 0.055
E45K | 0.073 ± 0.075
E45T | -0.052 ± 0.054
E45V | -0.038 ± 0.048
E45D | 0.005 ± 0.12
E45R | -0.207 ± 0.042
C11H | -0.839 ± 0.055
C11T | -0.933 ± 0.061
C11E | -0.782 ± 0.13
T42M | -0.153 ± 0.051
T42A | -0.024 ± 0.04
T42W | -0.198 ± 0.048
T42K | -0.01 ± 0.047
T42G | 0 ± 0.038

Variant | abundance fitness
W53C | -0.453 ± 0.092
W53M | -0.252 ± 0.077
W53T | -0.13 ± 0.071
W53K | -0.146 ± 0.067
W53R | -0.147 ± 0.05
W53L | -0.283 ± 0.049
C36R | -0.619 ± 0.039
C36A | -0.671 ± 0.043
C36V | -0.73 ± 0.037
C36S | -0.716 ± 0.036
C36D | -0.802 ± 0.051
C36N | -0.615 ± 0.044
L22R | -0.153 ± 0.037
L22H | -0.001 ± 0.049
L22E | -0.353 ± 0.097
L22Y | 0.039 ± 0.04
L22M | -0.006 ± 0.074
L22W | -0.113 ± 0.05
L22K | 0.01 ± 0.078
L22D | -0.292 ± 0.048
L22F | 0.014 ± 0.036
L22V | -0.003 ± 0.039
L22G | 0.013 ± 0.035
Q40T | 0.02 ± 0.063

Variant | abundance fitness
Q40P | -0.009 ± 0.051
Q40H | -0.055 ± 0.093
Q40E | -0.04 ± 0.049
H33Y | -0.795 ± 0.047
H33D | -0.547 ± 0.039
H33M | -0.882 ± 0.084
H33E | -0.483 ± 0.059
H33W | -1.21 ± 0.14
H33V | -0.767 ± 0.037
H33Q | -0.769 ± 0.084
H33T | -0.85 ± 0.057
H33I | -0.873 ± 0.047
H33A | -0.609 ± 0.039
H37T | -0.101 ± 0.042
H37K | -0.379 ± 0.069
H37S | -0.088 ± 0.031
H37E | -0.223 ± 0.08
H37Y | -0.249 ± 0.036
V10T | -0.46 ± 0.04
V10F | -0.241 ± 0.034
V10A | -0.059 ± 0.041
V10E | -0.11 ± 0.064
V10M | -0.153 ± 0.06
